From patent US20240270821A1, “GIP/GLP1/GCG TRI-RECEPTOR AGONISTS AND USES THEREOF” (priority 2023, published 2024)
Substitutions are numbered along the chain they refer to. One block for each binder: values may come before it.

What was measured:
Test in all cases: cell-based or functional assay
[1] = biological target: human glucagon receptor (human) (UniProt P47871)
[2] = biological target: T1, human GIP receptor (human) (UniProt P48546)
T1 sequence (looked up): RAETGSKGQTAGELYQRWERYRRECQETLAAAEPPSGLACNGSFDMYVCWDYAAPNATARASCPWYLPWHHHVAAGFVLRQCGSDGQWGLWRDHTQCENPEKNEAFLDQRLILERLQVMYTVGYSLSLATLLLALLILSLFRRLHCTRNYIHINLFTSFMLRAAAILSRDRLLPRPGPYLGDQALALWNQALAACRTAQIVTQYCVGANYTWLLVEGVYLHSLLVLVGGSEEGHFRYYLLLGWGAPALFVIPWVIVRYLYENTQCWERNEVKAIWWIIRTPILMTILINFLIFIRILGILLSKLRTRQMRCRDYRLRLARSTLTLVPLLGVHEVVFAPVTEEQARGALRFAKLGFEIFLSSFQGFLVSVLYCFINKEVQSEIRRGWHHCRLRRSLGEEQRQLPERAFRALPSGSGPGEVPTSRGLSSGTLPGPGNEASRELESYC

[3] = biological target: hGLP-1R (Homo sapiens, UniProt P43220)
Sequence of hGLP-1R (P43220 24-463): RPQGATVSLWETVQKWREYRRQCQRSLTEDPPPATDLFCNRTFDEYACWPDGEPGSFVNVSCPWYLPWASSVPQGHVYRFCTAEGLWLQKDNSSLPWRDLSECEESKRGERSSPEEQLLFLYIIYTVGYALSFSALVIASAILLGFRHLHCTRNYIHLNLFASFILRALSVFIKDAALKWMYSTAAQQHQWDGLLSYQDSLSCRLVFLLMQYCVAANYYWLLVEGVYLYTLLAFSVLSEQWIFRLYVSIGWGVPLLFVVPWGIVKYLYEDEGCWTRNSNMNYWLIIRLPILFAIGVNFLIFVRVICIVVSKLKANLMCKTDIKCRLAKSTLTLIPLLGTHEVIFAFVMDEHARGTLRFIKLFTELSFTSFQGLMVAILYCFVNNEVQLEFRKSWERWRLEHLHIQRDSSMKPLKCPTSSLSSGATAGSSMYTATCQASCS

Sequence of human glucagon receptor (human) (P47871 26-477): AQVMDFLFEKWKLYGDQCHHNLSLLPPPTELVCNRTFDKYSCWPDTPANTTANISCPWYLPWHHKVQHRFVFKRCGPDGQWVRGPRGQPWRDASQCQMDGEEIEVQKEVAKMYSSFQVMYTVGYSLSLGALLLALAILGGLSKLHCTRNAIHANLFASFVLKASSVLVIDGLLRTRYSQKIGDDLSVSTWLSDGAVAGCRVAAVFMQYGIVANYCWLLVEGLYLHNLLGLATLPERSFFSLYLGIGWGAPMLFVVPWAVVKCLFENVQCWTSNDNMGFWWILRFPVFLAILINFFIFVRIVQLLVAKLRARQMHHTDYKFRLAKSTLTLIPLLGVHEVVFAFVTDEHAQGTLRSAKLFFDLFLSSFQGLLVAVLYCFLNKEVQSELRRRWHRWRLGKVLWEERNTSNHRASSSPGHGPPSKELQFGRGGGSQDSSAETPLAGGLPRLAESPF

B1: Example 990 (peptide)
chain: YXQGTFTSDXSXXLDKKAQXAFIEXLIEXGPSSGEPPPSGSE
modifications: Aib, 4Pal, Me4Pal, Orn, alpha-methyl-Leu, lipidated Lys, amide; synthetic construct; SITE 2: note = 2-Aminoisobutyric Acid; SITE 10: note = 3-(4-Pyridyl)-L-alanine; SITE 12: note = L-ornithine; SITE 13: note = alpha-methyl-leucine; SITE 17: note = Lysine is chemically modified through conjugation of the epsilon-amino group of the Lysine side chain with (gamma-Gl)
Relative cAMP EC50 [1]: 2.47 nM
cAMP Rel EC50, nM (1% HSA) [1]: 276 nM
Relative cAMP EC50 [2]: 0.115 nM
cAMP Rel EC50, nM (1% HSA) [2]: 9.87 nM
Relative cAMP EC50 [3]: 5.78 nM
cAMP Rel EC50, nM (1% HSA) [3]: 557 nM

B2: Example 988 (peptide)
chain: B1 chain
modifications: non-natural residues; Lys acylated AEEA-(γGlu)2-C18 diacid; C-terminal amide; synthetic construct; SITE 2: note = 2-Aminoisobutyric Acid; SITE 10: note = 3-(4-Pyridyl)-L-alanine; SITE 12: note = L-ornithine; SITE 13: note = alpha-methyl-leucine; SITE 17: note = Lysine is chemically modified through conjugation of the epsilon-amino group of the Lysine side chain with (2-[2-(2-
Relative cAMP EC50 [1]: 2.52 nM
cAMP Rel EC50, nM (1% HSA) [1]: 320 nM
Relative cAMP EC50 [2]: 0.198 nM
cAMP Rel EC50, nM (1% HSA) [2]: 11.8 nM
Relative cAMP EC50 [3]: 9.5 nM
cAMP Rel EC50, nM (1% HSA) [3]: 743 nM

B3: Example 979 (peptide)
chain: YXQGTFTSDXSXXLDKKAQXAFIEYLIAGGPSSGEPPPSGE
modifications: synthetic construct; SITE 2: note = 2-Aminoisobutyric Acid; SITE 10: note = 3-(4-Pyridyl)-L-alanine; SITE 12: note = L-ornithine; SITE 13: note = alpha-methyl-leucine; SITE 17: note = Lysine is chemically modified through conjugation of the epsilon-amino group of the Lysine side chain with (gamma-Gl)
Relative cAMP EC50 [1]: 3.34 nM
cAMP Rel EC50, nM (1% HSA) [1]: 359 nM
Relative cAMP EC50 [2]: 0.181 nM
cAMP Rel EC50, nM (1% HSA) [2]: 19.2 nM
Relative cAMP EC50 [3]: 2.72 nM
cAMP Rel EC50, nM (1% HSA) [3]: 257 nM

B4: Example 987 (peptide)
chain: B3 chain with Y25X, A28E, G29X, E41S
modifications: Aib, 4Pal, Orn, αMeL, Me4Pal, acylated K, C-terminal amide; synthetic construct; SITE 2: note = 2-Aminoisobutyric Acid; SITE 10: note = 3-(4-Pyridyl)-L-alanine; SITE 12: note = L-ornithine; SITE 13: note = alpha-methyl-leucine; SITE 17: note = Lysine is chemically modified through conjugation of the epsilon-amino group of the Lysine side chain with (2-[2-(2-
Relative cAMP EC50 [1]: 3.62 nM
cAMP Rel EC50, nM (1% HSA) [1]: 267 nM
Relative cAMP EC50 [2]: 0.194 nM
cAMP Rel EC50, nM (1% HSA) [2]: 11.7 nM
Relative cAMP EC50 [3]: 6.33 nM
cAMP Rel EC50, nM (1% HSA) [3]: 515 nM

B8: Example 991 (peptide)
chain: B3 chain with K16X, Y25X, A28E, G29X, E41S
modifications: Aib, 4Pal, Orn, Me4Pal, lipidated Lys, C-terminal amide; synthetic construct; SITE 2: note = 2-Aminoisobutyric Acid; SITE 10: note = 3-(4-Pyridyl)-L-alanine; SITE 12: note = L-ornithine; SITE 13: note = alpha-methyl-leucine; SITE 16: note = L-ornithine; SITE 17: note = Lysine is chemically modified through conjugation of the epsilon-amino group of the Lys
Relative cAMP EC50 [1]: 3.03 nM
cAMP Rel EC50, nM (1% HSA) [1]: 405 nM
Relative cAMP EC50 [2]: 0.119 nM
cAMP Rel EC50, nM (1% HSA) [2]: 14.8 nM
Relative cAMP EC50 [3]: 3.91 nM
cAMP Rel EC50, nM (1% HSA) [3]: 315 nM

Next, values leading:

Relative cAMP EC50 [1]: 5.34 nM
cAMP Rel EC50, nM (1% HSA) [1]: 636 nM
Relative cAMP EC50 [2]: 0.116 nM
cAMP Rel EC50, nM (1% HSA) [2]: 12 nM
Relative cAMP EC50 [3]: 0.668 nM
cAMP Rel EC50, nM (1% HSA) [3]: 95.1 nM
B5: Example 1007 (peptide)
chain: B3 chain with X12Q, K16X, E41S
modifications: not fully specified; synthetic construct; SITE 2: note = 2-Aminoisobutyric Acid; SITE 10: note = 3-(4-Pyridyl)-L-alanine; SITE 13: note = alpha-methyl-leucine; SITE 16: note = L-ornithine; SITE 17: note = Lysine is chemically modified through conjugation of the epsilon-amino group of the Lysine side chain with (gamma-Gl)

Relative cAMP EC50 [1]: 4.75 nM
cAMP Rel EC50, nM (1% HSA) [1]: 576 nM
Relative cAMP EC50 [2]: 0.289 nM
cAMP Rel EC50, nM (1% HSA) [2]: 19.4 nM
Relative cAMP EC50 [3]: 2.35 nM
cAMP Rel EC50, nM (1% HSA) [3]: 207 nM
B6: Example 983 (peptide)
chain: B3 chain with K16X
modifications: Lys acylated (γ-Glu)2-C18 diacid; non-natural residues; C-terminal amide; synthetic construct; SITE 2: note = 2-Aminoisobutyric Acid; SITE 10: note = 3-(4-Pyridyl)-L-alanine; SITE 12: note = L-ornithine; SITE 13: note = alpha-methyl-leucine; SITE 16: note = L-ornithine; SITE 17: note = Lysine is chemically modified through conjugation of the epsilon-amino group of the Lys

Relative cAMP EC50 [1]: 2.27 nM
cAMP Rel EC50, nM (1% HSA) [1]: 247 nM
Relative cAMP EC50 [2]: 0.103 nM
cAMP Rel EC50, nM (1% HSA) [2]: 8 nM
Relative cAMP EC50 [3]: 3.92 nM
cAMP Rel EC50, nM (1% HSA) [3]: 402 nM
B7: Example 989 (peptide)
chain: B3 chain with Y25X, A28E, G29X, E41S
modifications: Lys acylated (γ-Glu)2-C18 diacid; non-natural residues; C-terminal amide; synthetic construct; SITE 2: note = 2-Aminoisobutyric Acid; SITE 10: note = 3-(4-Pyridyl)-L-alanine; SITE 12: note = L-ornithine; SITE 13: note = alpha-methyl-leucine; SITE 17: note = Lysine is chemically modified through conjugation of the epsilon-amino group of the Lysine side chain with (gamma-Gl)
